Results: the DeepSol protein solubility set

Assay: soluble on expression in E. coli; label from the status in PepcDB or PDB records

Sequence | soluble on expression in E. coli
MIMAANEKEMRIKIIKDGPYRVTGGVPLLEQVIVTDDDGHTRDLIDIKEYPRREAYILCRCGSSENKPFCDGAHRKVGFDGSETASRTPYLEKAETFEGPDLKLTDVYELCDHSRFCQRSGGIRDLIQKSDDPEARQTAIEEAMICPSGRLVLWDKKTGKPFEKEFDPSIILVHDKQKGCEGPLWVRGGVPIESADGSMYEPRNRVTLCRCGKSENKPYCDGSHWMNSQQKLEFRKKWGLELEHHHHHH | not soluble
MLKLYVLVYKGEPLDYHEYRHTALYLKLPDNQSFIMHILGTQGMFEYAQIKNKDPSVVGSLAKVVPVADISEVIGSGPIQSTVAKTLVQNGPLDLDWNCQHWVGDALSKLAERKYITVAERAEAIDRMMDACLEAMDD | not soluble
MEDIENIEEDEYGFSRNYFLAKELGGASKRSAHKLSDIHIVDEQELRETASTIEMKHSKEISELMSDYKTMYSKWVFELRCGFGLLMYGFGSKKALVEDFASASLTDYSVVVINGYLPSVNLKQVLLALAELLSELLKCKRKSSGSLSKGQETFPSRSMDDILSFLHGPQSGDKDCFICVVVHNIDGPALRDPESQQTLARLSSCSHIRLVASIDHVNAPLLWDKKMVHKQFNWLWHHVPTFAPYNVEGVFFPLVLAQGSTAQTAKTAAIVLQSLTPNGQNVFKILAEYQLSHPDEDGMPTDDLYSASRERFFVSSQVTLNSHLTEFKDHELVKTKRNSDGQECLNIPLTSDAIRQLLLDLNQ | not soluble
MVRRRTASPSPSAPVRSAPRPAAQSSFAAPPPRPAAAAPAYHPPAAPTPMGAPMGAPSQGPGLMKQMAATAGGVAIGSAVGHAVGGMFTGGGSSHAEQAPAAAAAPAGAPQASGYSQPCEFEWRQFVDCAQNQSDVSLCNGFNDIFKQCKARYA | not soluble
MGSDKIHHHHHHMHFYRSLGPIRAITFDLDDTLYDNADVIRRTGQESIRFLQEYHPALRDFQADDFQNLRQTLLEREPDIYHDVTEWRRRAVELAMLDRGLSAAESKDGAKAAMENFAHWRSQIAITEETHQTLAALAEKVPLAAITNGNAEPHRFGLERYFSFILRAGPHGRAKPFDDMYHLAAEKLNLPLHEILHVGDDLTTDVAGSIRCGMQACWINLREGSLTQIGDARLLPHIEISRLASLSALL | not soluble
MAKISEIMLLQQPEQPALAIEVQTYMKGMSQAIGENFVRIDSLFKKQGEVTTDIPFVEYPDFESLTEDRIKMIIGLKSSKPLQGDEKIQSVILPARRIVVCLHRGNYNELAQLYNEMTEWIKTNGYKASGTSIEYYYSNPDVPEEEHVTRVEMPLL | not soluble
MGHHHHHHGGHMSLVRITWCPGCGNFAILKAFERASRRVIEEGFDIAVSSGIGCHGKISDYLSLPGFHVIHGRVPPFLTGLKLANPNLVVVGFSGDGDGLNEGVEHLVHAARRNTDITIILHNNGVFGLTTGQVTATSPRGRKSRSTPRGNPEYPLNPCHLMLVSGATFVARVFAGEQERLSEVFYNAMKHKGFSFVEVMQPCVSFNNFWEMRKEIYWIERSSDLLEAMKNCSDAKACGIFYAEEKETYEDAVWKSTFEGGS | soluble
MGCLGNSKTEDQRNEEKAQREANKKIEKQLQKDKQVYRATHRLLLLGAGESGKSTIVKQMRILHVNGFNGEGGEEDPQAARSNSDGEKATKVQDIKNNLKEAIETIVAAMSNLVPPVELANPENQFRVDYILSVMNVPDFDFPPEFYEHAKALWEDEGVRACYERSNEYQLIDCAQYFLDKIDVIKQDDYVPSDQDLLRCRVLTSGIFETKFQVDKVNFHMFDVGGQRDERRKWIQCFNDVTAIIFVVASSSYNMVIREDNQTNRLQEALNLFKSIWNNRWLRTISVILFLNKQDLLAEKVLAGKSKIEDYFPEFARYTTPEDATPEPGEDPRVTRAKYFIRDEFLRISTASGDGRHYCYPHFTCAVDTENIRRVFNDCRDIIQRMHLRQYELLGGHHHHHH | soluble
MNMIDKIGVHDVPPGESLQPPRIPYTPIFSNKRLSKHMSRFLIYFLPFFIYSGNVLSKTSCLMATGVLKCPTDPEAVKKVHIDLWDEDSLPLESDDLMGRTWSDRNGNFQVTGCASDFGPINTPDPYLYIQHNCPHRDSNATNPIQVYLKVLENASF | not soluble
MQEEVNEKTVSLCITGGKVTARLLKQAMMRFLAAMEKEKAEKARKQQVKGPPDKDYHGKQSLKKLAQQNVQLSNIEITDNNIKAFEKVAKKYGIDFSLKRDKSVDPPRYFVFFKARDVDVMTAAFREFTGKTLNKTKKPSVRKKLQQAIAARSQDKQREREKSKEKQKEPTL | not soluble
MSKAAKKKSSKKRSGSEAAQFDQKTIQEFKEAFGIMDQNKDGIIDKSDLKDLYASMGQIAPDSQIDAMIKEASGPINFTVFLTLFGERLTGTDPEATIVGAFAMFDKKDCGKIKEDDLIKILQNKRGEPLDEDEVKAMYKGKPPIEGGEVDYKAFAHLITTGAQDELASA | not soluble
MLDMNPQETYTAPEEVNTPSRPIDENALLQRHQVMVKRVVNQLRVHATSHCSIEDMQQIGLIALVEAGRRYGDIDDTHFPAFAVCRVRGAILDELRRLDWRSRKTRQQAHELNDVTRDLTRSLGRMPTDSEIIKALGTDEQDYYNRQNAALAGEMQSLDQLMENSTDSHFGGQYDGMEHEHIRRSLDSALGRLSKRDQLLLTLFYQHELNLHEIALVLDLTPPRICQLHKQALKQLNQLMSS | not soluble
MGSDKIHHHHHHMAATLEAVPSTKTADKKTEISEADAARELVRMAKEQGLSLTGPDGLLKQLTKTVIETALDEEMTEHLGYEKHDSAGKQTANSRNGVRPKTVLTETTGPVEVDVPRDRAGTFEPVIVKKRQRRLTGVDEMVLSLYAKGLTTGEISAHFAEIYGASVSKETVSRITDRVLEEMAAWQNRPLDEVYAAIFIDAIVVKVRDGQVANRPIYAAIGVTLEGEKDILGLWAGTGGEGAKFWMSVLTDIKNRGVKDTFFLVCDGLKGLPEVVTNVWPLATVQTCIIHLIRNTFRLASRQDWDALKRDVKPIYTAPNAEAARTALEELAERWGRKYGAIVRLWENAWEELIPFLDYDVEIRRVICSTNAIESLNARYRRAVKARGHLPTEQAALKCLYLVTRSLDPTGAGKTRWAVRWKPALNAFAITFSDRFPAAESY | not soluble
SLIPIFIAKRENGEKIHLLDHHDEELLHHMRKRESFFCIACGKEVLMRLGKQKRWHFAHKKVDSCLAFYEAESTYHMYGKELLYRWFKRQNVHVEIEHYLPEIRQRPDIFIERAGKQIAIEYQCANLSIEQLCKRTYSYWRAGIQVIWIIGGNQLKKHSAYWMKFSSLMAFSLQSYPQPLLIFFCSKQKSFMKCTFITSFSTSVAFSHIIYLPIETTTFEMLFSPVPFQREVLNREWKRRKDYFRQNALPILNYNHKSLLRLLYQCKCNPANFPSEIGVPLPSSFAFQTNSFIWQAFLYMNCIGELAVGDCISLKYVCSYIKKYTKRRMLPYFSQH | not soluble
MSLRALFDALTPKQARIAAILKREGGLQLTITCREYYHLRDMLEQYKVDYICIGRYGETTEEKLVEGLKRQLQMVEIMRGLDGVVSFPSPDAVRTAFGLGKKSVVLNDTPHAYHANSLTIPLSDALIAPSAIPQDAWRRYCPKKVMTFDGVFEYMWTSRHTPNLESVRKLGLEPGSYVVFRPEEAKAAYYQWNNVQLRAKLVELVKEMGYVVVNIPRYPDQVIEGAINLIKAVDHLDLAYYAAAVITGGLTMSTEAALLGTPAVSYFPGDVYIDRYLERAGAPLLRCSSMDECIHVVKKALSMGRAPPPKMEDPLKAIVAAVQEIFGGEGHHHHHH | soluble
MSNSEPSTSTPSGKTKKRGKKCETSMGKSKKSKNLPRFVKIQPIFSSEKIKETVCEQGIEECKRMLKGHFNAIKDDYDIRVKDELDTDIKDWLKDASSSVNEYRRRLQENLGEGRTIAKFSFKNCEKYEENDYKVSDSTVTWIKPDRTEEGDLMKKFRAPCSRIEVGDISPPMIYWVPIEQSVATPDQLRLTHMPYFGDGIDDGNIYEHLIDMFPDGIHGFSDNWSYVNDWILYKLCRAALKDYQGSPDVFYYTLYRLWPNKSSQREFSSAFPVLCENFAEKGFDPSSLEPWKKTKIAEGAQNLRNPTCYACLAYTCAIHGFKAEIPIEFPNGEFYNAMLPLPNNPENDGKMCSGNCWKSVTMKEVSEVLVPDSEEILQKEVKIYFMKSRIAKMPIEDGALIVNIYVFNTYIPFCEFVKKYVDEDDEESKIRSCRDAYHLMMSMAENVSARRLKMGQPSNRLSIKDRVNNFRRNQLSQEKAKRKLRHDSLRIQALRDGLDAEKLIREDDMRDSQRNSEKVRMTAVTPITACRHAGPCNATAENCACRENGVCSYMCKCDINCSQRFPGCNCAAGQCYTKACQCYRANWECNPMTCNMCKCDAIDSNIIKCRNFGMTRMIQKRTYCGPSKIAGNGLFLLEPAEKDEFITEYTGERISDDEAERRGAIYDRYQCSYIFNIETGGAIDSYKIGNLARFANHDSKNPTCYARTMVVAGEHRIGFYAKRRLEISEELTFDYSYSGEHQIAFRMVQTKERSEKPSRPKSQKLSKPMTSE | not soluble
MAHHHHHHMSEINIIKAFGILLCRLKKYNPVTTGDINKFEFLFLKASYADKHWTPPKGLHENNESGLETAVRETLEETGINKDKYKLLNYQKTLKYNVKDKPKETTYYLAMLLNNEENVILSDEHTDYKWIGSHESDTYNLPESLADLLKEAEEFLNKEQL | soluble
MGHHHHHHSHMKMEHQNKRSPLHAAAEAGHVDICHMLVQAGANIDTCSEDQRTPLMEAAENNHLEAVKYLIKAGALVDPKDAEGSTCLHLAAKKGHYEVVQYLLSNGQMDVNCQDDGGWTPMIWATEYKHVDLVKLLLSKGSDINIRDNEENICLHWAAFSGCVDIAEILLAAKCDLHAVNIHGDSPLHIAARENRYDCVVLFLSRDSDVTLKNKEGETPLQCASLNSQV | not soluble
MNRRLELYYTRQLLVISKYCQDQTKEIVLPTVGQNIGDSWITDIFVKLREKLVKYTTQVSRPLATKVVQDSQKEVDAQIAEHTKSIIGVDLTPFYRASDIQDVVDTNIAANVALIKSIPNQYVDKLEALVMNAFQTGQTNEDLAKAIAQLGQSTDSRARLIAADQMGKVNGQINKARQLSMGVETYVWQTAKDERVRKDHQHKQGKTFRWDDPPTGGHPGEPIRCRCTALPNYEDILVD | not soluble
MALAMNRSITAITVTHNSAHTVRGALARLPPGVEIVCVDNASTDDLSTALSDLAVHRIDNPVNLGFGRACNIGAAAATGEYLLFINPDVRLGTDAVDALLQAAERYPNCGVFVPRTNTVDGRLWFREESEIDRLSGVSLPTRIRQVWGDCCVRFVNGGVFMIKRTLFLDTGGFDEDIFLYFEDDDLSYRLLQRDEPMILVSGAHAVHDIGTSVAQSTRSRIFRYRSKMRSEIHLRKKYGIAYSPFVDILRYSTKIGFYCLTLNRNRLINSLGRLIGIFDSILDRSRANRNGGYVALEHHHHHH | not soluble
SLFNPNELKMDFLKRPVTHSFLKLEIMPYKSAFNLRMRENIQSYYKQALRGWGSFEDELLGLKNTLKNLPLYQTLKIKPKKINAPICVVGNGPSLDLLLDFLKENEKNCIIFSCGTALKPLKTHGVKVDFQIEVERIDYLKEVLENAPLEDTPLMGANMLNPNAFNVAKEALMFMRGGSACAYISPLSIEYAAPLVGNAGVALAGLMSDEIYLCALDCAYIKGFKKHAQNSYYGDEKEIDTSSLISVEGNFKGYETFSDSLFLLSKERIEEALNHYQPKKVYNLSYGAKIKHAVSLNYSQVKL | not soluble
MGHHHHHHSHMSERSVSKRTEQKRWYTVQAPEQFDREVLGKTPAEEPDKVLGRTIETTLGELTNDASENNTKLTFKINEVASDSAYTEFIRHELTRDYLRSLVRRGSSKVEAYITVLTTDDYRVQIQPVAVTTKKADASQEKAIRRTMIDLVRETAEDHTFEQLIDSVVEGRLSSAIYGEAKDIYPLRRVEIKKTTLEARPEEVAAEEETAVDVDEEDVDVEA | soluble
